Biological target: Human CK2 α2β2-holoenzyme (human) (UniProt P68400)
Sequence (P68400 whole entry, chain 1 of 2): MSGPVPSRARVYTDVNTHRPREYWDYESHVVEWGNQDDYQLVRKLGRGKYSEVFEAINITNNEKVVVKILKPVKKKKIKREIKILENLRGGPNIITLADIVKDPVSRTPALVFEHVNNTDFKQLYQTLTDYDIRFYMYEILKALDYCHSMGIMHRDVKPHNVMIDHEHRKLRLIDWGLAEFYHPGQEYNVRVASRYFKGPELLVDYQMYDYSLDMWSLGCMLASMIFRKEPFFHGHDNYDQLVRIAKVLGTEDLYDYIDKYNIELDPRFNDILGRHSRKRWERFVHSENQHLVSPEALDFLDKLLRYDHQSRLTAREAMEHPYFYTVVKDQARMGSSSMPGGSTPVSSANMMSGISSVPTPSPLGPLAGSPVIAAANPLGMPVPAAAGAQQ
Sequence (P67870 whole entry, chain 2 of 2, further chain): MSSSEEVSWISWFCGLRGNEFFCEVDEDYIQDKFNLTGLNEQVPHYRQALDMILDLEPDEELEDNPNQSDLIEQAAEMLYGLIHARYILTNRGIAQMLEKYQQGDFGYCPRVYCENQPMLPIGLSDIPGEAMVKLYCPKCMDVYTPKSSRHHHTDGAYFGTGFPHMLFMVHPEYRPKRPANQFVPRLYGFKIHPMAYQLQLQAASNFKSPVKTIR

42-mer peptide reproducing the C-terminal tail of human CFTR (residues 1439–1480), sequence (P13569 1439-1480): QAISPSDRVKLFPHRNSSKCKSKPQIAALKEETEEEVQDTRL

Km of phosphorylation of the 42-mer by CK2 holoenzyme (33P incorporation, Figure 3): 1.4 µM
Substance: 42-mer peptide reproducing the C-terminal tail of human CFTR (residues 1439–1480) (from UniProt P13569 1439-1480) (domain or fragment)

From publication PMC3776838, “Detection of Phospho-Sites Generated by Protein Kinase CK2 in CFTR: Mechanistic Aspects of Thr1471 Phosphorylation” (PLoS ONE, 2013)
